Positions count from the first letter of the chain named.

For one assay, the target named is T1, hCXCR4/Gαqi5 (Homo sapiens, UniProt P61073).
T1 construct: expressed in transfected cells; host or cells: HEK293T
The experiment in a line: CXCL12-induced inositol phosphate accumulation in HEK293T cells co-transfected with CXCR4 and Gαqi5. It is filed as cell-based. The note with it: 30 nM CXCL12. The text has this: In an effort to functionally characterize the Nanobodies 238D2 and 238D4, the inventors measured their ability to activate G-protein signaling or to inhibit the CXCL12-induced G-protein signaling in HEK293T cells transiently co-transfected with cDNAs encoding CXCR4 and Gαqi5. This assay is based upon the use of the chimeric Gαqi5-protein that contains of a Gαq backbone with the 5 C-terminal amino acids replaced by those from Gαi. The chimeric G-protein is activated by CXCR4 like a Gαi subunit but transduces signals like Gαq proteins (Coward, P., et al., Chimeric G Proteins Allow a High-Throughput Signaling Assay of […] Receptors, Analytical Biochemistry (1999) 270: 242-248). Thus, the activation of Gαqi5 can be quantified by the measurement of accumulated inositol phosphates.
Methods: On day 1, HEK293T cells were plated out at a density of 2 million cells/dish. On day 2, these cells were transfected with 2.5 μg CXCR4 DNA and 2.5 μg Gαqi5, using the PEI method. Cells were plated out the next day in poly-L-lysine coated 24 well plates (500 μl/well) and labeled after 4-6 hours with 2 μCi/ml 3H-inositol in inositol-free medium. […] After this final incubation, the reaction was stopped by aspiration of stimulation medium and addition of 10 mM formic acid (FIG. 4).

In a further assay the target is T2, PTHR (Homo sapiens, UniProt Q03431).
T2 sequence (Q03431 27-593): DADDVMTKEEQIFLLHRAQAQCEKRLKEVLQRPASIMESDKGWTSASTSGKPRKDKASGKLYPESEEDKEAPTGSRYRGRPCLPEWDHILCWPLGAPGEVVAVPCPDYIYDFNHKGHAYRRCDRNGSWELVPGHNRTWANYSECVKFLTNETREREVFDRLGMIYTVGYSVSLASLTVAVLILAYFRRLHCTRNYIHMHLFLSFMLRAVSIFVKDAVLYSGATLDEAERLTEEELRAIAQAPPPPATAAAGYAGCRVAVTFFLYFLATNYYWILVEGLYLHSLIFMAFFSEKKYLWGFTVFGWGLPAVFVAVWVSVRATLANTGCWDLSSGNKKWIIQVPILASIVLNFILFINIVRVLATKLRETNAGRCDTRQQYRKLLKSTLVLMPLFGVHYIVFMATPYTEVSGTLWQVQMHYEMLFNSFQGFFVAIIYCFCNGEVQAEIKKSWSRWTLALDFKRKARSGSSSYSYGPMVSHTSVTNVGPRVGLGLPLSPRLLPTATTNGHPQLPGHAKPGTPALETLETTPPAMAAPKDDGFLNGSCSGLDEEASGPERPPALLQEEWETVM
The experiment in a line: Binding of clones measured on Biacore (Table B-3). The procedure: (§1) Binding of 4 clones directed against CB1R and of 4 clones against PTHR was measured on Biacore.

A further assay deals with CB1R. The assay can be described thus: Binding of clones measured on Biacore (Table B-2). Conditions: read-out: Binding of clones against CB1R. On the procedure:
as §1
For orientation: SPR reads the build-up and loss of mass on a sensor chip optically.

Assay [1] concerns the target CXCR7 point mutants (Homo sapiens, UniProt P25106, M33Q). The assay can be described thus: Binding to a set of 10 point mutants of CXCR7. The note with it: M33Q point mutant. The procedure:
(§2) In a third approach, Nanobodies were tested for their binding to a set of 10 point mutants of CXCR7 (S9A, F14Y, 117L, S18N, W19A, S23G, D25A, V32A, M33Q, N36T), which yielded information on the individual NANOBODY® (VHH) epitopes.

Assay [2] concerns the target CXCR7 point mutants (Homo sapiens, UniProt P25106, W19A). The experiment in a line: Binding to a set of 10 point mutants of CXCR7. The note with it: W19A point mutant. The procedure:
as §2

The next assay deals with CXCR7 (Homo sapiens, UniProt P25106). The experiment in a line: Competition with Alexa647-labelled 14G03 in FACS analysis. It is filed as binding. The note with it: Alexa647-labelled 14G03, FACS. The source says:
Nanobodies 08A05, 08A10, 07C03, 01C10 and 14G03, Mab 8F11 (Biolegend), Mab 11G8 (R&D) and Mab 9C4 (MBL) were further tested for competition with Alexa647-labelled 14G03 in FACS analysis.
(In general: Flow cytometry measures light scatter and fluorescence of single cells or particles in a stream.)

A further assay addresses T3, CXCR4 (Homo sapiens, UniProt P61073).
T3 construct: expressed in transfected cells; host or cells: HEK293T (membranes)
The experiment in a line: [125I]-CXCL12 competition binding on membranes from HEK293T cells transiently expressing CXCR4 (Table I). The source says:
Another example of a therapeutic relevant GPCR is CXCR4, which was previously identified as such in Table C and Table D of US20100062004. This representative GPCR has now been further investigated by the present inventors. Different pools of highly similar clones able to inhibit specific [^125I]-CXCL12 binding were identified in a CXCR4 competition binding assay. Nanobodies representing these different pools were purified and further pharmacologically analyzed as detailed in the Example section of WO09/138519. In particular two representative monovalent Nanobodies 238D2 and 238D4 and different mono- and heterobivalent constructs thereof have been analyzed in depth:
Additionally, the inventors engineered a series of mono-specific bivalent and biparatopic CXCR4 constructs. […] Overall, short peptide linkers were used favoring binding to CXCR4 monomers.
In membrane binding experiments mAb 12G5, which is a known neutralizing CXCR4 antibody, seems only to displace 50% of radiolabeled 125I-CXCL12 (CXCR4 ligand).

Sequence of CXCR7 (P25106 whole entry): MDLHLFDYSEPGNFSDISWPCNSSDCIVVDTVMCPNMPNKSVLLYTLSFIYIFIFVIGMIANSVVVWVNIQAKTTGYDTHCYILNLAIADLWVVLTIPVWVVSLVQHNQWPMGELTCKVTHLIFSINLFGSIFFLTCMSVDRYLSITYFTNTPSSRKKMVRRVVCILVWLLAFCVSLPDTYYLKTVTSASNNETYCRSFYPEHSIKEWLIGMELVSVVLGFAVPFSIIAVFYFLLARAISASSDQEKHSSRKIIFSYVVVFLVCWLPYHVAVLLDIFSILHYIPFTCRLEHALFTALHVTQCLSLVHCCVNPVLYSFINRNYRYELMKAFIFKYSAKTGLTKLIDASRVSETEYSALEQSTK
T3 sequence (P61073 whole entry): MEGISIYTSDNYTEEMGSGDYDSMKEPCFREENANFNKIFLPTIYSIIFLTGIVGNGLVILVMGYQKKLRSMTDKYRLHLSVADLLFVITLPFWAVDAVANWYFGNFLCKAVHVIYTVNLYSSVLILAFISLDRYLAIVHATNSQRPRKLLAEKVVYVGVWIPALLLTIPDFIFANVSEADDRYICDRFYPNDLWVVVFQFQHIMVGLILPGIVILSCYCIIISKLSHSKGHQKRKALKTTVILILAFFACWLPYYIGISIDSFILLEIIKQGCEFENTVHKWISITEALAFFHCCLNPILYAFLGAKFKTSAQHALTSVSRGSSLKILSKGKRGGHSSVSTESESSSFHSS
Sequence of CXCR7 point mutants (Homo sapiens, UniProt P25106, M33Q) (P25106 whole entry M33Q): as the sequence (P25106 whole entry) above, with M33Q counted along it
Sequence of CXCR7 point mutants (Homo sapiens, UniProt P25106, W19A) (P25106 whole entry W19A): as the sequence (P25106 whole entry) above, with W19A counted along it
T1 sequence (P61073 whole entry): as the sequence (P61073 whole entry) above

On to `c1cc(CN2CCCNCCNCCCNCC2)ccc1CN1CCCNCCNCCCNCC1` [AMD3100, plerixafor, reference compound], for which the “concentration needed to inhibit CXCR4 function” value on hCXCR4/Gαqi5 amounted to 1 µM.

B1: vHH23A3 (protein)
VHH: EVQLVESGGGLVQAGGSLRLSCAASGLTFSNYAMGWFRQAPGKEREWVASINWSGGSTYYEDSVEGRFTISRDNAKNTVNLQMNSLKPEDTAVYYCAAKRGHYSREYDYWGQGTQVTVSS
Regarding B1, in the assay with PTHR (PTHR − CaCl2), the Kd was determined as 22 nM.

B2: vHH22A3 (protein)
VHH: EVQLVESGGGLVQAGGSLRLSCAASGNIFANNIMGWYRQPPGKEREFVAHVSHDGDSMYAVSVKGRFAISRKDATNLYLQMNSLKPEDTAIYFCRLLNIPTQGRMEGFWGQGTQVTVSS
B2: the Kd with PTHR (PTHR + CaCl2) was 9 nM; with PTHR (PTHR − CaCl2), 17 nM.

B3: vHH6B7 (protein)
VHH: EVQLVESGGGLVQAGGSLRLSCAASGRTLRNYDMGWFRQAPGKEREFVATIRWSTSETYYADSVKGRFTISSDNAKNTVDLQMNSLTPGDTGVYYCAARSVYSYDYNYWGQGTQVTVSS
Turning to B3, at CB1R, the Kd amounted to 12 nM.

B4: vHH5G11 (protein)
VHH: B3 VHH with E6K, R30S, S56G, A61T, S72K, A75T, G89E, G92A, A98S, D105E
For the molecule B4, on CB1R, the Kd is 12 nM.

B5: 08A10: Nanobody against human CXCR7, Group 2 (protein)
VHH: EVQLVESGGGLVQAGGSLRLSCAASGSIFSIAAMGWYRQATGKQRELVATITDGGTTTYADSVKGRVTISRDRSANTVYLAMNNLKPDDTAVYYCYAYLRYTSRVPGDNYWGQGTQVTVSS
modifications: Nanobody, Nanobody constructs or fragments thereof
Turning to B5, the “epitope includes residue M33” value with CXCR7 point mutants [1] is “included residue M33”. In addition, the “effect of W19A mutation on binding” value with CXCR7 point mutants [2] is on record as “did not affect”. In the assay with CXCR7, the “competition with 14G03 binding to CXCR7” value is listed as “compete”.

B6: 14G03: Nanobody against human CXCR7, Group 2 (protein)
VHH: EVQLVESGGGLVQPGGSLRISCAASGSIYLINYMGWYRQAPGKQRELVATLTSGGSTNYAGSVKGRFAISRDNAKNTVYLQMNSLKPEDTAVYYCNIGGTLYDRRRFESWGQGTQVTVSS
modifications: Nanobody, Nanobody constructs or fragments thereof
With B6, the “epitope includes residue M33” value with CXCR7 point mutants [1] was “included residue M33”. In addition, the “effect of W19A mutation on binding” value in the assay with CXCR7 point mutants [2] is recorded as “did not affect”.

B7: 01C10: Nanobody against human CXCR7, Group 1 (protein)
VHH: EVQLVESGGGLVQTGASLRLSCAASGRTFSNYAMGWFRQAPGKERERVAAITPRAFTTYYADSVKGRFTISRDNAKNTAYLQMVSLKPEDTAVYYCAAQLVGSGSNLGRQESYAYWGQGTQVTVSS
modifications: Nanobody, Nanobody constructs or fragments thereof
Turning to B7, the “effect of W19A mutation on binding” value in the assay with CXCR7 point mutants [2] is recorded as “affected”. Moreover, the “competition with 14G03 binding to CXCR7” value in the assay with CXCR7 is reported as “does not”.

B8: 238D2-20GS-238D4: biparatopic CXCR4 Nanobody, 238D2 linked to 238D4 via 20 amino acid GGGGS-repeat linker (protein)
chain: EVQLVESGGGLVQTGGSLRLSCAASGFTFSSYAMSWVRQAPGKGLEWVSGIKSSGDSTRYAGSVKGRFTISRDNAKNMLYLQMYSLKPEDTAVYYCAKSRVSRTGLYTYDNRGQGTQVTVSSGGGGSGGGGSGGGGSGGGGSEVQLMESGGGLVQAGGSLRLSCAASGRTFNNYAMGWFRRAPGKEREFVAAITRSGVRSGVSAIYGDSVKDRFTISRDNAKNTLYLQMNSLKPEDTAVYTCAASAIGSGALRRFEYDYSGQGTQVTVSS
The Ki is a dissociation constant, usually derived from enzyme kinetics or from competition with a known ligand. Turning to B8, the “inhibitory potency on CXCL12-induced inositol phosphate accumulation” value with hCXCR4/Gαqi5 (compared to monovalent counterparts and 12G5, FIG. 4) is “significantly increased inhibitory potency”. In the assay with CXCR4 ([125I]-CXCL12 displacement, membranes from HEK293T cells transiently expressing CXCR4, read-out: Ki (nM) (receptor affinity)), the inhibition constant Ki came out at 0.36 nM. The “Rel. potency (potency relative to those of monovalent 238D2)” value in the assay with CXCR4 (footnote a: relative to monovalent 238D2) is 27. Moreover, the “Rel. potency (potency relative to those of monovalent 238D4)” value with CXCR4 (footnote b: relative to monovalent 238D4) was determined as 17. Further, the “increase in affinity to CXCR4 over monovalent counterpart 238D2” value with CXCR4 (relative to monovalent 238D2) came out at 27 fold. For the same molecule, the “increase in affinity to CXCR4 over monovalent counterpart 238D4” value with CXCR4 (relative to monovalent 238D4) was 17 fold.

B9: vHH6H4 (protein)
VHH: EVQLVESGGGLVQAGGSLRLACAASGSIFSFNAMGWYRQAPGKQRELLAVITRDGITKYADSVKGRFTISRDNAKNTMYLQMNSLKPEDTAVYYCHTGLPTGRGSHSDYWGQGTQVTVSS
With B9, the Kd on CB1R came out at 36 nM.

B10: L13 (protein)
chain: EVQLMESGGGLVQAGGSLRLSCAASGRTFNNYAMGWFRRAPGKEREFVAAITRSGVRSGVSAIYGDSVKDRFTISRDNAKNTLYLQMNSLKPEDTAVYTCAASAIGSGALRRFEYDYSGQGTQVTVSSGGGGSGGGGSGGGGSGGGGSEVQLMESGGGLVQAGGSLRLSCAASGRTFNNYAMGWFRRAPGKEREFVAAITRSGVRSGVSAIYGDSVKDRFTISRDNAKNTLYLQMNSLKPEDTAVYTCAASAIGSGALRRFEYDYSGQGTQVTVSS
B10: the “Displacem. (%) (maximal displacement of [125I]-CXCL12)” value in the assay with CXCR4 (membranes from HEK293T cells transiently expressing CXCR4, means ± S.E.M.) is listed as 96 ± 5%.

B11: vHH26A6 (protein)
VHH: EVQLVESGGGLVQAGGSLRLSCAASRSRSSFDDMGWYRQAPGKQREFVGGITLGGSTIYADSVKGRFTISMDSARNTGYLQMNSLKPEDTAVYYCNAALDGYSGSSWGQGTQVTVSS
B11: the Kd in the assay with PTHR (PTHR − CaCl2) turned out to be 17 nM.

B12: vHH26F2 (protein)
VHH: EVQLVESGGGLVQAGGSLRLSCVASGFSFDDYAIGWFRQAPGQDREPLACITSGGTRNYNPSVMARFRIDRDNSVKTVYLQINTLKPEDTAVYYCSTELDRQGGSAHECREYDTWGQGTQVTVSS
As for B12, the figures for the Kd in the assay with PTHR (PTHR + CaCl2) and with PTHR (PTHR Fos12) were 70 nM and 360 nM, respectively.

B13: 08A05: Nanobody against human CXCR7, Group 2 (protein)
VHH: EVQLVESGGGLVQAGDSLRLSCAASGLTFSNYDMGWFRQAPGKEREFVGASWWSGGAPYYSDSVKGRFTISRDNAKNTVYLQANSLRPEDTAVYYCAAKRLRSFASGGSYDYWGQGTQVTVSS
modifications: Nanobody, Nanobody constructs or fragments thereof
Regarding B13, the “epitope includes residue M33” value with CXCR7 point mutants [1] was “included residue M33”. In the assay with CXCR7 point mutants [2], the “effect of W19A mutation on binding” value is on record as “did not affect”. Also, the “competition with 14G03 binding to CXCR7” value with CXCR7 is given as “compete”.

For the origin of these results see patent publication US9512236B2, “Amino acid sequences directed against GPCRS and polypeptides comprising the same for the treatment of GPCR-related diseases and disorders” (Ablynx N.V., priority 2006, dated 2016).
